Results published in paper PMC4889941, “Flexibility of KorA, a plasmid-encoded, global transcription regulator, in the presence and the absence of its operator” (Nucleic Acids Research, 2016).

Molecular target: the molecule itself
Test: SAXS; free KorA at 2.5, 5 and 10 mg/ml in 20 mM Tris-HCl pH 7.0, 100 mM NaCl, 1 mM EDTA, 293K; confirmed by SEC-SAXS (Superdex 200 Increase, 4 mg/ml); mass from I0 against bovine serum albumin

B1: KorA repressor from the IncP1 plasmid RK2 (natural protein)
chain: MKKRLTESQFQEAIQGLEVGQQTIEIARGVLVDGKPQATFATSLGLTRGAVSQAVHRVWAAFEDKNLPEGYARVTAVLPEHQAYIVRKWEADAKKKQETKR
notes: KorA, global transcription repressor encoded by the IncP1 plasmid RK2; 13C/15N-labelled protein was used for NMR; also called free KorA; KorA dimer
stoichiometry N: 2
